Laboratory results taken from the supplement of paper PMC10065799, “High-throughput profiling of sequence recognition by tyrosine kinases and SH2 domains using bacterial peptide display” (eLife, 2023).

Tested on: c-Abl (mouse)
Test: phosphorylation enrichment, bacterial display (enrichment ratio); higher = better substrate or ligand; peptides without Tyr show the background
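Note: 11-residue human phosphosite peptides and single-mutation variants displayed on the E. coli surface, counted by deep sequencing, each peptide's frequency after selection divided by its frequency in the unselected input library; frequency after pTyr selection over input frequency; kinase dosed for 20-30% of maximal phosphorylation in three min.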

Row | Sequence | phosphorylation enrichment
1 | VTDGKYAFKPK [GTF2E2_Y137_I133T] | 0.575
2 | EPSVPYRGTVF [GLI3_Y104] | 0.534
3 | KKRRSYGNSSD [SELENOK_Y52] | 0.479
4 | EQKKYSNAMKK [SCN5A_Y1495_Y1495S] | 0.469
5 | GPSTPYTKSKC [SMARCC2_Y324_R329C] | 0.55
6 | GGGGSYNDFGN [HNRNPA1_Y312] | 0.458
7 | SGSFRYGSSFE [SELE_Y390_C394F] | 0.489
8 | ADRSCYDLSCH [GARS1_Y467] | 0.631
9 | GASWRYGSGVS [NEU1_Y242] | 0.506
10 | QFPDVYAREEV [CRX_Y67_YF] | 0.68
11 | TLLSAYQIPRT [GAB2_Y324_P320L] | 9.51
12 | RAMPVYEKAEH [TP63_Y231_K232E] | 0.576
13 | DWLRRYLENGK [HLA-A_Y195_E190D] | 0.584
14 | PMFTKYGNSLL [RPGRIP1L_Y196] | 1.49
15 | MVTSGYKAKTI [EFR3A_Y447] | 0.42
16 | FFRDGCMPRQF [GSS_Y270_Y270C_YF] | 0.717

Tested on: AncSZ
Test: as above

Row | Sequence | phosphorylation enrichment
17 | VTDGKYAFKPK [GTF2E2_Y137_I133T] | 0.491
18 | EPSVPYRGTVF [GLI3_Y104] | 0.566
19 | KKRRSYGNSSD [SELENOK_Y52] | 0.554
20 | EQKKYSNAMKK [SCN5A_Y1495_Y1495S] | 0.498
21 | GPSTPYTKSKC [SMARCC2_Y324_R329C] | 0.584
22 | GGGGSYNDFGN [HNRNPA1_Y312] | 0.599
23 | SGSFRYGSSFE [SELE_Y390_C394F] | 0.692
24 | ADRSCYDLSCH [GARS1_Y467] | 0.92
25 | GASWRYGSGVS [NEU1_Y242] | 0.637
26 | QFPDVYAREEV [CRX_Y67_YF] | 1.06
27 | TLLSAYQIPRT [GAB2_Y324_P320L] | 0.729
28 | RAMPVYEKAEH [TP63_Y231_K232E] | 0.664
29 | DWLRRYLENGK [HLA-A_Y195_E190D] | 1.1
30 | PMFTKYGNSLL [RPGRIP1L_Y196] | 1.45
31 | MVTSGYKAKTI [EFR3A_Y447] | 0.413
32 | FFRDGCMPRQF [GSS_Y270_Y270C_YF] | 0.863

Molecular target: FGFR3 (UniProt P22607)
Sequence (P22607 whole entry, looked up): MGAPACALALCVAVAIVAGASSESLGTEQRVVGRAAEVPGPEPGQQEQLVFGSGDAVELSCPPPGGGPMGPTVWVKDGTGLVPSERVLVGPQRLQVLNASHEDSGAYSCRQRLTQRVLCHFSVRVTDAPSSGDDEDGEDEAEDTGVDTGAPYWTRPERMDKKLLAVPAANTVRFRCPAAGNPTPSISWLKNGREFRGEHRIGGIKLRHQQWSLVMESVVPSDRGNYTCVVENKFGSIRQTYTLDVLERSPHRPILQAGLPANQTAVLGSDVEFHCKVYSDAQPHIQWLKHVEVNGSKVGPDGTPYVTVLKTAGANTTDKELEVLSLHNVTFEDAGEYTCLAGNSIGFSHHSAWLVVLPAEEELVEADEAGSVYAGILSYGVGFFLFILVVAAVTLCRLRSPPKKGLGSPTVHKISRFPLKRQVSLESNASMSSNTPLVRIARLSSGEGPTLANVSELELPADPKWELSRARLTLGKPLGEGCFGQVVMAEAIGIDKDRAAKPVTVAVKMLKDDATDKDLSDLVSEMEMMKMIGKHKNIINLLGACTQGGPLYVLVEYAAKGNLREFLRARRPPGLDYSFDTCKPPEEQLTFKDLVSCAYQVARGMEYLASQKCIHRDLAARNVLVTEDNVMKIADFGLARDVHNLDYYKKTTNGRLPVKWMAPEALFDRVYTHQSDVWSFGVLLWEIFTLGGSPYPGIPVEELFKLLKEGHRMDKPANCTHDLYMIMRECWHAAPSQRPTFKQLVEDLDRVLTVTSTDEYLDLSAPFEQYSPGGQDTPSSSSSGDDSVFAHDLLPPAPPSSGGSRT
Test: as above

Row | Sequence | phosphorylation enrichment
33 | VTDGKYAFKPK [GTF2E2_Y137_I133T] | 0.419
34 | EPSVPYRGTVF [GLI3_Y104] | 0.478
35 | KKRRSYGNSSD [SELENOK_Y52] | 0.395
36 | EQKKYSNAMKK [SCN5A_Y1495_Y1495S] | 0.459
37 | GPSTPYTKSKC [SMARCC2_Y324_R329C] | 0.479
38 | GGGGSYNDFGN [HNRNPA1_Y312] | 0.5
39 | SGSFRYGSSFE [SELE_Y390_C394F] | 0.528
40 | ADRSCYDLSCH [GARS1_Y467] | 0.586
41 | GASWRYGSGVS [NEU1_Y242] | 0.617
42 | QFPDVYAREEV [CRX_Y67_YF] | 0.693
43 | TLLSAYQIPRT [GAB2_Y324_P320L] | 0.531
44 | RAMPVYEKAEH [TP63_Y231_K232E] | 0.545
45 | DWLRRYLENGK [HLA-A_Y195_E190D] | 0.708
46 | PMFTKYGNSLL [RPGRIP1L_Y196] | 0.912
47 | MVTSGYKAKTI [EFR3A_Y447] | 0.375
48 | FFRDGCMPRQF [GSS_Y270_Y270C_YF] | 0.606

Molecular target: Hck (UniProt P08631)
Sequence (P08631 whole entry, looked up): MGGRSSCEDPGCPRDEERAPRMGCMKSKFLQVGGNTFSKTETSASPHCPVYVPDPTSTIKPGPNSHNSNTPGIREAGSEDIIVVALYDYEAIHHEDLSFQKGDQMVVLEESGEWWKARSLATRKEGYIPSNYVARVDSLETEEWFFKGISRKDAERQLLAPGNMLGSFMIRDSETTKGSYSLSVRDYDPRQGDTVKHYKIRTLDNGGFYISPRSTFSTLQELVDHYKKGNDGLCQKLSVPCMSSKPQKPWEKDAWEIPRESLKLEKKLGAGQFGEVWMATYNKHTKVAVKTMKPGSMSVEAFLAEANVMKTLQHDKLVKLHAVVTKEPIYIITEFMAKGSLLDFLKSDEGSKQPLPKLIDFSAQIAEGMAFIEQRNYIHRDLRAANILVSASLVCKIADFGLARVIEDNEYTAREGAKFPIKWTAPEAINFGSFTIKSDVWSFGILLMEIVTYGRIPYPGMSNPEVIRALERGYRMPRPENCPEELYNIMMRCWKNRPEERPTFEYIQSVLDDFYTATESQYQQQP
Test: as above

Row | Sequence | phosphorylation enrichment
49 | VTDGKYAFKPK [GTF2E2_Y137_I133T] | 0.459
50 | EPSVPYRGTVF [GLI3_Y104] | 0.441
51 | KKRRSYGNSSD [SELENOK_Y52] | 0.511
52 | EQKKYSNAMKK [SCN5A_Y1495_Y1495S] | 0.467
53 | GPSTPYTKSKC [SMARCC2_Y324_R329C] | 0.395
54 | GGGGSYNDFGN [HNRNPA1_Y312] | 0.474
55 | SGSFRYGSSFE [SELE_Y390_C394F] | 0.389
56 | ADRSCYDLSCH [GARS1_Y467] | 0.561
57 | GASWRYGSGVS [NEU1_Y242] | 0.505
58 | QFPDVYAREEV [CRX_Y67_YF] | 0.645
59 | TLLSAYQIPRT [GAB2_Y324_P320L] | 0.533
60 | RAMPVYEKAEH [TP63_Y231_K232E] | 1.02
61 | DWLRRYLENGK [HLA-A_Y195_E190D] | 0.705
62 | PMFTKYGNSLL [RPGRIP1L_Y196] | 0.636
63 | MVTSGYKAKTI [EFR3A_Y447] | 0.322
64 | FFRDGCMPRQF [GSS_Y270_Y270C_YF] | 0.497

Molecular target: Fes (UniProt P07332)
Sequence (P07332 whole entry, looked up): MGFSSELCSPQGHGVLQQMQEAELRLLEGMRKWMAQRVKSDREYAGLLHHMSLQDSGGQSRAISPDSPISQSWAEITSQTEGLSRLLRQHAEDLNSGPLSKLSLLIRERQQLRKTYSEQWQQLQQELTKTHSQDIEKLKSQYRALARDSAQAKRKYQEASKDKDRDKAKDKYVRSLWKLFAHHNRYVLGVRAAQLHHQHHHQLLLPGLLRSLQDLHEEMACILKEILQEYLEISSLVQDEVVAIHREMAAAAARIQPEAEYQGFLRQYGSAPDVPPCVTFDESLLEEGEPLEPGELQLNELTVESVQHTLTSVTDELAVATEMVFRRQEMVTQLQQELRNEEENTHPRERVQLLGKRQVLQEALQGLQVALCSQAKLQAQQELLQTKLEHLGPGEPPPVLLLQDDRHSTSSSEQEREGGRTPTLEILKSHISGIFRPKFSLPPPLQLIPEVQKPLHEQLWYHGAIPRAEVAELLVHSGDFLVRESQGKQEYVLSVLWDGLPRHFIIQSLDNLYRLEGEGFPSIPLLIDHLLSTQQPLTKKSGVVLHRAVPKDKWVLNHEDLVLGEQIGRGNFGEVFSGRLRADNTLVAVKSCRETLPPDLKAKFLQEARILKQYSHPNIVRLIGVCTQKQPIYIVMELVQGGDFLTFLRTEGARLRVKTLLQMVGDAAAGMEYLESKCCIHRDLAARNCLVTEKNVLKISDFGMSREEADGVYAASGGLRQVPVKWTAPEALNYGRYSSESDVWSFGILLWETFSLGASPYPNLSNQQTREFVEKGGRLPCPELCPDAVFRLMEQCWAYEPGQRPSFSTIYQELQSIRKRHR
Test: as above

Row | Sequence | phosphorylation enrichment
65 | VTDGKYAFKPK [GTF2E2_Y137_I133T] | 0.64
66 | EPSVPYRGTVF [GLI3_Y104] | 0.698
67 | KKRRSYGNSSD [SELENOK_Y52] | 0.582
68 | EQKKYSNAMKK [SCN5A_Y1495_Y1495S] | 0.53
69 | GPSTPYTKSKC [SMARCC2_Y324_R329C] | 0.534
70 | GGGGSYNDFGN [HNRNPA1_Y312] | 0.791
71 | SGSFRYGSSFE [SELE_Y390_C394F] | 0.686
72 | ADRSCYDLSCH [GARS1_Y467] | 0.91
73 | GASWRYGSGVS [NEU1_Y242] | 0.782
74 | QFPDVYAREEV [CRX_Y67_YF] | 1.43
75 | TLLSAYQIPRT [GAB2_Y324_P320L] | 0.74
76 | RAMPVYEKAEH [TP63_Y231_K232E] | 0.598
77 | DWLRRYLENGK [HLA-A_Y195_E190D] | 1.04
78 | PMFTKYGNSLL [RPGRIP1L_Y196] | 1.73
79 | MVTSGYKAKTI [EFR3A_Y447] | 0.458
80 | FFRDGCMPRQF [GSS_Y270_Y270C_YF] | 1.2

Molecular target: EPHB1 (UniProt P54762)
Sequence (P54762 whole entry, looked up): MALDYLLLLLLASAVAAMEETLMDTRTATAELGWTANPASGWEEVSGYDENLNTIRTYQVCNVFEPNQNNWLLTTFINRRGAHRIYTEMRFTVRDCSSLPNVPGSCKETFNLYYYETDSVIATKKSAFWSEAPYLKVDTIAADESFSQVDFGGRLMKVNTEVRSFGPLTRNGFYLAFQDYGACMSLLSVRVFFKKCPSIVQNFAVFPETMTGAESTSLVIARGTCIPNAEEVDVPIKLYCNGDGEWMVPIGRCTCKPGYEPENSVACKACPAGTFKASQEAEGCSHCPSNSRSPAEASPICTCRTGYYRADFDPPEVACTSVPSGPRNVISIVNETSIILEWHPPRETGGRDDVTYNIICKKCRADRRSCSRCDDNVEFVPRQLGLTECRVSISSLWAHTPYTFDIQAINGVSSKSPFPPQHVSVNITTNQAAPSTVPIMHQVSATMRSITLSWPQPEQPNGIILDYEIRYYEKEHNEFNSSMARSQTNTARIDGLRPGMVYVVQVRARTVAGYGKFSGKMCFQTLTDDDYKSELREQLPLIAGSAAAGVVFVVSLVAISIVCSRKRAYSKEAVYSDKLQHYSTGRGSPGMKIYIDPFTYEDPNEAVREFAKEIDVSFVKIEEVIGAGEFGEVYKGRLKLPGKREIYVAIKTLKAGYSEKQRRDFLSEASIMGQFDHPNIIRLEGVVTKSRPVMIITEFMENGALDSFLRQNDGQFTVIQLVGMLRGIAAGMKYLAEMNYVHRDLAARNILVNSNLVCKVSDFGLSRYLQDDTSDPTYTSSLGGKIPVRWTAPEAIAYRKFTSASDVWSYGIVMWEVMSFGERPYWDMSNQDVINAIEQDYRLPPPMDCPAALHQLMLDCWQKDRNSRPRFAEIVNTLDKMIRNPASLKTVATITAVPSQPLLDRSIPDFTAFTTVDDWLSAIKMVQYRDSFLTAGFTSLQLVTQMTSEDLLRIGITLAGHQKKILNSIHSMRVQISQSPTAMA
Test: as above

Row | Sequence | phosphorylation enrichment
81 | VTDGKYAFKPK [GTF2E2_Y137_I133T] | 0.299
82 | EPSVPYRGTVF [GLI3_Y104] | 0.447
83 | KKRRSYGNSSD [SELENOK_Y52] | 0.472
84 | EQKKYSNAMKK [SCN5A_Y1495_Y1495S] | 0.326
85 | GPSTPYTKSKC [SMARCC2_Y324_R329C] | 0.35
86 | GGGGSYNDFGN [HNRNPA1_Y312] | 0.433
87 | SGSFRYGSSFE [SELE_Y390_C394F] | 0.463
88 | ADRSCYDLSCH [GARS1_Y467] | 0.486
89 | GASWRYGSGVS [NEU1_Y242] | 0.512
90 | QFPDVYAREEV [CRX_Y67_YF] | 0.514
91 | TLLSAYQIPRT [GAB2_Y324_P320L] | 0.55
92 | RAMPVYEKAEH [TP63_Y231_K232E] | 0.654
93 | DWLRRYLENGK [HLA-A_Y195_E190D] | 0.723
94 | PMFTKYGNSLL [RPGRIP1L_Y196] | 1.07
95 | MVTSGYKAKTI [EFR3A_Y447] | 0.337
96 | FFRDGCMPRQF [GSS_Y270_Y270C_YF] | 0.533

Tested on: Fer (mouse)
Test: as above

Row | Sequence | phosphorylation enrichment
97 | VTDGKYAFKPK [GTF2E2_Y137_I133T] | 0.31
98 | EPSVPYRGTVF [GLI3_Y104] | 0.424
99 | KKRRSYGNSSD [SELENOK_Y52] | 0.417
100 | EQKKYSNAMKK [SCN5A_Y1495_Y1495S] | 0.247
101 | GPSTPYTKSKC [SMARCC2_Y324_R329C] | 0.393
102 | GGGGSYNDFGN [HNRNPA1_Y312] | 0.33
103 | SGSFRYGSSFE [SELE_Y390_C394F] | 0.484
104 | ADRSCYDLSCH [GARS1_Y467] | 0.431
105 | GASWRYGSGVS [NEU1_Y242] | 0.428
106 | QFPDVYAREEV [CRX_Y67_YF] | 0.879
107 | TLLSAYQIPRT [GAB2_Y324_P320L] | 0.545
108 | RAMPVYEKAEH [TP63_Y231_K232E] | 1.79
109 | DWLRRYLENGK [HLA-A_Y195_E190D] | 1.02
110 | PMFTKYGNSLL [RPGRIP1L_Y196] | 1.44
111 | MVTSGYKAKTI [EFR3A_Y447] | 0.314
112 | FFRDGCMPRQF [GSS_Y270_Y270C_YF] | 0.489

Tested on: c-Src
Test: as above

Row | Sequence | phosphorylation enrichment
113 | VTDGKYAFKPK [GTF2E2_Y137_I133T] | 0.361
114 | EPSVPYRGTVF [GLI3_Y104] | 0.46
115 | KKRRSYGNSSD [SELENOK_Y52] | 0.525
116 | EQKKYSNAMKK [SCN5A_Y1495_Y1495S] | 0.262
117 | GPSTPYTKSKC [SMARCC2_Y324_R329C] | 0.36
118 | GGGGSYNDFGN [HNRNPA1_Y312] | 0.441
119 | SGSFRYGSSFE [SELE_Y390_C394F] | 0.425
120 | ADRSCYDLSCH [GARS1_Y467] | 0.472
121 | GASWRYGSGVS [NEU1_Y242] | 0.42
122 | QFPDVYAREEV [CRX_Y67_YF] | 0.672
123 | TLLSAYQIPRT [GAB2_Y324_P320L] | 0.435
124 | RAMPVYEKAEH [TP63_Y231_K232E] | 0.776
125 | DWLRRYLENGK [HLA-A_Y195_E190D] | 0.617
126 | PMFTKYGNSLL [RPGRIP1L_Y196] | 0.951
127 | MVTSGYKAKTI [EFR3A_Y447] | 0.292
128 | FFRDGCMPRQF [GSS_Y270_Y270C_YF] | 0.463
